Experimental data reported in PMC5814800.

Target: T25-ϕC31 gp3 (wild type) fusion protein
Test: bacterial two-hybrid (B2H) β-galactosidase assay
Details: parent: est. 0.14; read off a plot

Substance	response (ΔOD420/min/ml)
wild-type ϕC31 integrase fused to T18 (Int-T18 fusion, pEY111) (from UniProt Q9T221) I582V	0.1
wild-type ϕC31 integrase fused to T18 (Int-T18 fusion, pEY111) (from UniProt Q9T221) I420A	0.019
wild-type ϕC31 integrase fused to T18 (Int-T18 fusion, pEY111) (from UniProt Q9T221) W526R	0.008
wild-type ϕC31 integrase fused to T18 (Int-T18 fusion, pEY111) (from UniProt Q9T221) I420A; I582V	-0.016
wild-type ϕC31 integrase fused to T18 (Int-T18 fusion, pEY111) (from UniProt Q9T221) I420V; I582V	0.021
wild-type ϕC31 integrase fused to T18 (Int-T18 fusion, pEY111) (from UniProt Q9T221) I420A; I582T	-0.009

Other lines, results leading:

response (ΔOD420/min/ml)	Substance
0.13	wild-type ϕC31 integrase fused to T18 (Int-T18 fusion, pEY111) (from UniProt Q9T221) I420V
0.15	wild-type ϕC31 integrase fused to T18 (Int-T18 fusion, pEY111) (from UniProt Q9T221) I582L
0.068	wild-type ϕC31 integrase fused to T18 (Int-T18 fusion, pEY111) (from UniProt Q9T221) I582T
0.023	wild-type ϕC31 integrase fused to T18 (Int-T18 fusion, pEY111) (from UniProt Q9T221) W526A
0.027	wild-type ϕC31 integrase fused to T18 (Int-T18 fusion, pEY111) (from UniProt Q9T221) I582A
0.21	wild-type ϕC31 integrase fused to T18 (Int-T18 fusion, pEY111) (from UniProt Q9T221) W526F
0.037	wild-type ϕC31 integrase fused to T18 (Int-T18 fusion, pEY111) (from UniProt Q9T221) I582G
